39 sequences from the supplement of paper PMC7877785 can be followed below.

± gives the uncertainty stated by the source.

This series is described as follows: self-splicing fitness, log relative to wild type (ln ratio); higher = more splicing; Tetrahymena group I intron in knt gene, E. coli kanamycin selection, DiMSum; sequences stand for … in CUCUCU…GGAGGGAAAAGUUAUCAGGCAUGCACCUGGUAGCUAGUCUUUAAACCAAUAGAUUGCAUCGGUUUAAAAGGCAAGACCGUCAAAUUGCGGGAAAGGGGUCAACAGCCGUUCAGUACCAAGUCUCAGGGGAAACUUUGAGAUGGCCUUGCAAAGGGUAUGGUAAUAAGCUGACGGACAUGGUCCUAACCACGCAGCCAAGUCCUAAGUCAACAGAUCUUCUGUUGAUAUGGAUGCAGUUCACAGACUAAAUGUCGGUCGGGGAAGAUGUAUUCUUCUCAUAAGAUAUAGUCGGACCUCUCCUUAAUGGGAGCUAGCGGAUGAAGUGAUGCAACACUGGAGCCGCUGGGAACUAAUUUGUAUGCGAAAGUAUAUUGAUUAGUUUUGGAGUACUCGUGGUCG
The method in brief: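 Colonies from six replicate transformations of E. coli BL21(DE3) were pooled and amplicon-sequenced on an Illumina HiSeq 2500. The library placed an intron with all eight P1ex-region nucleotides randomised inside the knt kanamycin-resistance gene on pET-22b(+), and cells grew overnight at 37°C or 30°C on LB agar with or without 25 μg/mL kanamycin (plus 100 μg/mL carbenicillin, 50 μM IPTG, 0.2% rhamnose). Fitness is the DiMSum error-weighted combination of wild-type-normalised replicate fold changes, kanamycin versus none.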

Turning to UACUAGCAAUAUUACGCGAU, the “self-splicing fitness (ln)” value is -2.84 ± 0.18 (30 °C) and -2.5 ± 0.18 (37 °C).

As to UACUAGCAAUAUUACGCGUC, the “self-splicing fitness (ln)” value (30 °C) was -2.73 ± 0.14 and the “self-splicing fitness (ln)” value (37 °C) is -1.81 ± 0.14.

For the sequence UACUAGCAAUAUUACGCGUG, the “self-splicing fitness (ln)” value is -1.21 ± 0.079 (30 °C) and -0.559 ± 0.089 (37 °C).

Turning to UACUAGCAAUAUUACGCUGG, the “self-splicing fitness (ln)” value (30 °C) was -4.47 ± 0.39 and the “self-splicing fitness (ln)” value (37 °C) was -1.78 ± 0.24.

With UACUAGCAAUAUUACGCUUG, the “self-splicing fitness (ln)” value was -1.44 ± 0.1 (30 °C) and -1.64 ± 0.14 (37 °C).

Regarding UACUAGCAAUAUUACGCUUU, the “self-splicing fitness (ln)” value is, setting by setting: (30 °C) -2.09 ± 0.11; (37 °C) -2.16 ± 0.17.

For the sequence UACUAGCAAUAUUACGGACU, the “self-splicing fitness (ln)” value was -0.895 ± 0.12 (30 °C) and -0.214 ± 0.17 (37 °C).

For the sequence UACUAGCAAUAUUACGGCUC, the “self-splicing fitness (ln)” value (30 °C) was -1.67 ± 0.19 and the “self-splicing fitness (ln)” value (37 °C) was -0.765 ± 0.18.

For UACUAGCAAUAUUACGGUGA, the “self-splicing fitness (ln)” value runs as follows: (30 °C) -1.54 ± 0.11; (37 °C) -0.0276 ± 0.12.

In the case of UACUAGCAAUAUUACGUAAA, the “self-splicing fitness (ln)” value is -1.66 ± 0.12 (30 °C) and -0.614 ± 0.14 (37 °C).

As for UACUAGCAAUAUUACGUCAC, under “30 °C”, the “self-splicing fitness (ln)” value is -3.47 ± 0.26.

As for UACUAGCAAUAUUACGUCCU, the “self-splicing fitness (ln)” value was -1 ± 0.13 (30 °C) and -1.26 ± 0.15 (37 °C).

For the sequence UACUAGCAAUAUUACGUCUU, the “self-splicing fitness (ln)” value (30 °C) is -2.11 ± 0.13 and the “self-splicing fitness (ln)” value (37 °C) is -1.27 ± 0.14.

With UACUAGCAAUAUUACGUGCG, the “self-splicing fitness (ln)” value reads like this: (30 °C) -0.684 ± 0.08; (37 °C) -1.31 ± 0.1.

In the case of UACUAGCAAUAUUACGUGGU, the “self-splicing fitness (ln)” value (30 °C) is -2.87 ± 0.14 and the “self-splicing fitness (ln)” value (37 °C) was -2.75 ± 0.17.

UAGAAGCAAUAUUACGAACC: the “self-splicing fitness (ln)” value (30 °C) is -2.02 ± 0.24 and the “self-splicing fitness (ln)” value (37 °C) is -0.44 ± 0.3.

For UAGAAGCAAUAUUACGAAGU, the “self-splicing fitness (ln)” value by setting is: (30 °C) -3.7 ± 0.4; (37 °C) -1.17 ± 0.22.

In the case of UAGAAGCAAUAUUACGACAC, the “self-splicing fitness (ln)” value by setting is: (30 °C) -1.77 ± 0.43; (37 °C) -2.07 ± 0.25.

As to UAGAAGCAAUAUUACGAGAU, the “self-splicing fitness (ln)” value was -3.64 ± 0.33 (30 °C) and -2.16 ± 0.23 (37 °C).

UAGAAGCAAUAUUACGAGUC: the “self-splicing fitness (ln)” value is, setting by setting: (30 °C) -2.76 ± 0.39; (37 °C) -2.02 ± 0.33.

Take UAGAAGCAAUAUUACGAUCC: the “self-splicing fitness (ln)” value is, setting by setting: (30 °C) -2.25 ± 0.23; (37 °C) -1.45 ± 0.3.

For UAGAAGCAAUAUUACGCAUA, the “self-splicing fitness (ln)” value (30 °C) is -1.55 ± 0.17 and the “self-splicing fitness (ln)” value (37 °C) is -1.36 ± 0.12.

Take UAGAAGCAAUAUUACGCCCA: the “self-splicing fitness (ln)” value reads like this: (30 °C) -0.128 ± 0.15; (37 °C) 0.21 ± 0.25.

Consider UAGAAGCAAUAUUACGCCCC, for which the “self-splicing fitness (ln)” value is, setting by setting: (30 °C) -3.03 ± 0.2; (37 °C) -1.63 ± 0.23.

As to UAGAAGCAAUAUUACGCCUU, the “self-splicing fitness (ln)” value runs as follows: (30 °C) -1.03 ± 0.22; (37 °C) -1.38 ± 0.26.

UAGAAGCAAUAUUACGCGAU: the “self-splicing fitness (ln)” value (30 °C) was -2.95 ± 0.41.

On to UAGAAGCAAUAUUACGCGCC, for which the “self-splicing fitness (ln)” value is -3.18 ± 0.24 (30 °C) and -0.65 ± 0.13 (37 °C).

In the case of UAGAAGCAAUAUUACGCGCG, the “self-splicing fitness (ln)” value reads like this: (30 °C) -0.301 ± 0.12; (37 °C) -0.204 ± 0.13.

Turning to UAGAAGCAAUAUUACGCUAU, the “self-splicing fitness (ln)” value is -4.05 ± 0.27 (30 °C) and -3.13 ± 0.27 (37 °C).

In the case of UAGAAGCAAUAUUACGCUCG, the “self-splicing fitness (ln)” value is, setting by setting: (30 °C) -1.06 ± 0.13; (37 °C) -0.333 ± 0.12.

Consider UAGAAGCAAUAUUACGGAAC, for which, for the setting “30 °C”, the “self-splicing fitness (ln)” value is -1.25 ± 0.34.

For the sequence UAGAAGCAAUAUUACGGCAU, the “self-splicing fitness (ln)” value reads like this: (30 °C) -1.96 ± 0.12; (37 °C) -0.323 ± 0.094.

As to UAGAAGCAAUAUUACGGCUG, the “self-splicing fitness (ln)” value was -0.338 ± 0.11 (30 °C) and 0.218 ± 0.15 (37 °C).

Turning to UAGAAGCAAUAUUACGGGGG, where the note is “37 °C”, the “self-splicing fitness (ln)” value was -2.25 ± 0.45.

Regarding UAGAAGCAAUAUUACGGUGA, the “self-splicing fitness (ln)” value is, setting by setting: (30 °C) -1.28 ± 0.12; (37 °C) -0.667 ± 0.12.

Take UAGAAGCAAUAUUACGGUUU: the “self-splicing fitness (ln)” value (30 °C) is -3.09 ± 0.17 and the “self-splicing fitness (ln)” value (37 °C) was -2.28 ± 0.16.

Take UAGAAGCAAUAUUACGUAUG: the “self-splicing fitness (ln)” value runs as follows: (30 °C) -1.01 ± 0.07; (37 °C) -1.14 ± 0.11.

For the sequence UAGAAGCAAUAUUACGUUCC, the “self-splicing fitness (ln)” value is, setting by setting: (30 °C) -2.51 ± 0.19; (37 °C) -0.539 ± 0.17.

As for UAGCAGCAAUAUUACGAAUC, the “self-splicing fitness (ln)” value runs as follows: (30 °C) -3.68 ± 0.42; (37 °C) -2.03 ± 0.27.
